From publication PMC5799168 (Scientific Reports, 2018)
Changes are numbered by the printed parent chain. Names and notes keep the numbering of the source.

T1: Ndi1 (Saccharomyces cerevisiae, UniProt P32340)
T1 construct: The mature Ndi1, which lacks a mitochondrial targeting; (His)10; made in house; host or cells: E. coli BL21(DE3)pLysS, plasmid pET16b(NDI1-m)
T1 sequence (P32340 27-513): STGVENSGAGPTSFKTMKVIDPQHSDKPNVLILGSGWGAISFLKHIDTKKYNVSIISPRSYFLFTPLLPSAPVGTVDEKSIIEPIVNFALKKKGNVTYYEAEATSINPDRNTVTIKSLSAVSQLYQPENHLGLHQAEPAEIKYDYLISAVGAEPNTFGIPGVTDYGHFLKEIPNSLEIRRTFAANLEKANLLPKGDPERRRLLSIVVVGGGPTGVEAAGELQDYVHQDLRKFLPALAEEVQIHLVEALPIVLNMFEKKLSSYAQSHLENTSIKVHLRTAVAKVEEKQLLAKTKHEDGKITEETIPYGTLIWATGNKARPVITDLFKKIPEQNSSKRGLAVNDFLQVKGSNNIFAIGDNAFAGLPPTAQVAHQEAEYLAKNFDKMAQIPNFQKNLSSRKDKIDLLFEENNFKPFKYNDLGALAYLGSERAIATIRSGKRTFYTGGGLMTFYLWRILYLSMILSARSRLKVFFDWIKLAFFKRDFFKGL

B1: M485E: recombinant Ndi1 mutant M485E (protein, UniProt P32340 27-513, looked up, variant M485E)
Rotenone-insensitive …: T1 sequence (P32340 27-513) with M459E
B2: Y482F: recombinant Ndi1 mutant Y482F (protein, UniProt P32340 27-513, looked up, variant Y482F)
Rotenone-insensitive …: T1 sequence (P32340 27-513) with Y456F
B3: S484F: recombinant Ndi1 mutant S484F (protein, UniProt P32340 27-513, looked up, variant S484F)
Rotenone-insensitive …: T1 sequence (P32340 27-513) with S458F
B4: M485A: recombinant Ndi1 mutant M485A (protein, UniProt P32340 27-513, looked up, variant M485A)
Rotenone-insensitive …: T1 sequence (P32340 27-513) with M459A
B5: R479I: recombinant Ndi1 mutant R479I (protein, UniProt P32340 27-513, looked up, variant R479I)
Rotenone-insensitive …: T1 sequence (P32340 27-513) with R453I
B6: R479K: recombinant Ndi1 mutant R479K (protein, UniProt P32340 27-513, looked up, variant R479K)
Rotenone-insensitive …: T1 sequence (P32340 27-513) with R453K
B7: I459N: recombinant Ndi1 mutant I459N (protein, UniProt P32340 27-513, looked up, variant I459N)
Rotenone-insensitive …: T1 sequence (P32340 27-513) with I433N
B8: R479A: recombinant Ndi1 mutant R479A (protein, UniProt P32340 27-513, looked up, variant R479A)
Rotenone-insensitive …: T1 sequence (P32340 27-513) with R453A
B9: L447N: recombinant Ndi1 mutant L447N (protein, UniProt P32340 27-513, looked up, variant L447N)
Rotenone-insensitive …: T1 sequence (P32340 27-513) with L421N
B10: Wild type: wild-type recombinant Saccharomyces cerevisiae Ndi1 (NADH dehydrogenase) (protein, UniProt P32340 27-513, looked up)
Rotenone-insensitive …: T1 sequence (P32340 27-513)
B11: S484I: recombinant Ndi1 mutant S484I (protein, UniProt P32340 27-513, looked up, variant S484I)
Rotenone-insensitive …: T1 sequence (P32340 27-513) with S458I
B12: L444N: recombinant Ndi1 mutant L444N (protein, UniProt P32340 27-513, looked up, variant L444N)
Rotenone-insensitive …: T1 sequence (P32340 27-513) with L418N
B13: R479H: recombinant Ndi1 mutant R479H (protein, UniProt P32340 27-513, looked up, variant R479H)
Rotenone-insensitive …: T1 sequence (P32340 27-513) with R453H
B14: Q394A: recombinant Ndi1 mutant Q394A (protein, UniProt P32340 27-513, looked up, variant Q394A)
Rotenone-insensitive …: T1 sequence (P32340 27-513) with Q368A
B15: P92A: recombinant Ndi1 mutant P92A (protein, UniProt P32340 27-513, looked up, variant P92A)
Rotenone-insensitive …: T1 sequence (P32340 27-513) with P66A

Experiments:
Ndi1 = molecular target: T1, Ndi1; test: Inhibition of NADH-ubiquinone-1 oxidoreductase activity of the purified Ndi1; type: biochemical; settings: for IC50: NADH-ubiquinone-1 oxidoreductase activity, purified recombinant Ndi1, 100 µM NADH, pH 6.0, mean ± S.E.M of three independent experiments; for Inhibition mode: inhibition mode for ubiquinone-1, from intersection point in Lineweaver-Burk plots, 100 µM NADH; for Ki: non-linear regression of mixed type inhibition (GraphPad Prism 6), versus ubiquinone-1; for Ki / α (α > 0): mean ± S.D.; for α (α > 0): α of mixed model inhibition fit (αKi = dissociation constant of ternary enzyme-substrate-inhibitor complex)
Protocol: NADH-ubiquinone oxidoreductase activity was measured as described previously. In brief, the reaction was started by adding 100 µM NADH to the enzyme mixture containing 10 ng/mL Ndi1, 50 mM sodium phosphate (pH 6.0) and 1 mM EDTA, which was pre-incubated with various concentrations of ubiquinone-1 for 1 min. […] The concentrations of inhibitors required to obtain the half-maximal inhibition (IC50) were estimated by non-linear regression dose-response curves. The inhibition mode of each inhibitor for ubiquinone-1 was determined by the intersection point in double-reciprocal plots (Fig. 2B–E). To objectively evaluate the inhibition mode, the data of the inhibition kinetics were fitted to the Eq.
This equation provides two dissociation constants, one for the binary enzyme-inhibitor complex (Ki), the other for the ternary enzyme-substrate-inhibitor complex (αKi).

[1] = tested on: wild-type and mutant Ndi1; test: Kinetic parameters of the oxidoreductase activity of wild-type and mutant Ndi1 for ubiquinone-1; type: biochemical, Saccharomyces cerevisiae; settings: for Km: apparent Km for ubiquinone-1 (2.4–60 µM); for Km / Vmax: NADH fixed at 100 µM; for Vmax: ubiquinone-1 as substrate (2.4–60 µM)
Protocol: This unique structure appears to be related to the competitive nature of the inhibition of Ndi1 oxidoreductase activity by stigmatellin. It is therefore hypothesized that L444, I459, R460, and S461, which interact with stigmatellin at the STG-1a site, are also involved in the binding of the substrate ubiquinone (Fig. 5). This hypothesis was evaluated by examining the effects of mutations of the proximal L444 and I459 on the kinetics of the enzymatic reaction of Ndi1. The effect of the mutation of S484, which specifically interacts with stigmatellin at the STG-1b site, was examined as a control. Furthermore, the effects of mutations of W63, P92, A393, Q394, H397, L447, Y482, M485, and L487, which interact with the aromatic head group of stigmatellin at the STG-1a and STG-1b sites, were also examined. Moreover, to investigate the functional role of the STG-2 site in ubiquinone binding, a mutation was also introduced to R479.
NADH-ubiquinone oxidoreductase activity was measured as described previously. In brief, the reaction was started by adding 100 µM NADH to the enzyme mixture containing 10 ng/mL Ndi1, 50 mM sodium phosphate (pH 6.0) and 1 mM EDTA, which was pre-incubated with various concentrations of ubiquinone-1 for 1 min. The decrease in 340 nm absorbance was measured as an indication of the oxidation of NADH (ε = 6.22 mM^−1 cm^−1) with a Shimadzu UV2000 spectrophotometer (Kyoto, Japan). The enzymatic activity obtained with 100 µM NADH and 60 µM ubiquinone-1 in the absence of any inhibitors (100% activity) catalyzed the oxidation of 1,890 μmol NADH/min/mg Ndi1. The concentrations of inhibitors required to obtain the half-maximal inhibition (IC50) were estimated by non-linear regression dose-response curves. The inhibition mode of each inhibitor for ubiquinone-1 was determined by the intersection point in double-reciprocal plots (Fig. 2B–E). To objectively evaluate the inhibition mode, the data of the inhibition kinetics were fitted to the Eq. (1) of mixed model inhibition in the Prism6 software program (GraphPad Software, Inc., La Jolla, CA).1 V=Vmax[S]/[S](1+[I]/αKi)+Km(1+[I]/Ki) […]
To determine the kinetic parameters of wild-type and mutant enzymes for ubiquinone-1, the NADH oxidation rates were measured in a fixed concentration of NADH (100 µM) and different concentrations of ubiquinone-1 (2.4–60 µM). Apparent Km and Vmax values were obtained by fitting a data set of initial velocity versus substrate concentration to the Michaelis-Menten model equation in the Prism6 software program.
Site-directed mutagenesis. The amino acid replacements of Ndi1 were basically performed with PrimeSTAR mutagenesis basal kit (Takara, Japan) using pET16b(NDI1-m) (2) and a synthetic oligonucleotide primer set (Table S2). The mutagenesis of H397 was performed with a QuikChange II XL site-directed mutagenesis kit (Stratagene, CA). Each mutation was confirmed through DNA sequencing (DNA sequencing service, Eurofins). The purification procedure of wild-type and mutant enzymes, used for the determination of the kinetic parameters (Table 2), was basically the same as the above procedure, without the replacement of the detergent from Triton X -100 with DDM. After washing the enzyme with buffer A containing 0.1% Triton X-100 and 15 mM histidine, 0.02% Triton X-100 was added to all buffer as a substitute for DDM. With the exception of 5 mutants containing L444D, I459A, […]
yield of the wild-type enzyme. […]

| Molecule | Km [1] [µM] | Vmax, % of the wild-type activity ([1]; relative to wild-type Ndi1) [%] | Vmax [1] [µmol/min/mg] | further results |
| --- | --- | --- | --- | --- |
| C/C=C(C)/C=C/C=C/[C@H](OC)[C@@H](C)[C@@H](OC)[C@@H](C)CCc1oc2c(O)c(OC)cc(OC)c2c(=O)c1C [Stigmatellin, stigmatellin] | – | – | – | IC50 (Ndi1): 107 ± 21 nM; Inhibition mode (Ndi1): competitive; Ki (Ndi1): 93.9 ± 30.4 nM; α (α > 0) (Ndi1): ~6.33×10^20; α (α > 0) (Ndi1; listed as stigmatellin): close to infinity |
| CC(/C=C/[C@@]1(C)[C@H](C)CCC(=O)[C@@H]1C)=C\Cc1c(O)c(Cl)c(C)c(C=O)c1O [Ascochlorin, ascochlorin] | – | – | – | IC50 (Ndi1): 955 ± 139 nM; Inhibition mode (Ndi1): mixed; Ki (Ndi1): 728 ± 191 nM; α (α > 0) (Ndi1): 2.64±1.87 |
| CCCCCCCCCCCCc1cc(=O)c2ccccc2n1O [AC0-12, 1-hydroxy-2-dodecyl-4(1 H) quinolone] | – | – | – | IC50 (Ndi1): 115 ± 18 nM; Inhibition mode (Ndi1): mixed; Ki (Ndi1): 14 ± 1.9 nM; α (α > 0) (Ndi1): 13.0±11.7 |
| B1 | 63.5 ± 7.8 | 112 | 1190 ± 96 | increase of Km value for ubiquinone-1 in comparison to wild-type enzyme ([1]; relative to wild-type Ndi1): 2.8 fold |
| B2 | 23.3 ± 2 | – | 1090 ± 45 | – |
| B3 | 24.5 ± 3.9 | – | 1160 ± 120 | – |
| B4 | 18.6 ± 1.1 | 28 | 292 ± 9.9 | – |
| B5 | 27.7 ± 1.2 | – | 0.313 ± 0.007 | – |
| B6 | 9.37 ± 0.48 | 29 | 305 ± 5.8 | – |
| B7 | 30.3 ± 2 | – | 11.1 ± 0.096 | – |
| B8 | 11.5 ± 0.58 | 30 | 316 ± 6.1 | – |
| B9 | 17.9 ± 1.8 | 13 | 140 ± 7.1 | – |
| B10 | 22.7 ± 1 | – | 1060 ± 6.1 | – |
| B11 | 25 ± 1.7 | – | 1010 ± 33 | – |
| B12 | 23.9 ± 2 | – | 1333 ± 14 | – |
| B13 | 23.5 ± 1.4 | 0.1 | 1.06 ± 0.035 | – |
| B14 | 24.5 ± 1.7 | 37 | 391 ± 3.3 | – |
| B15 | 25.6 ± 2.2 | 1 | 11.3 ± 0.4 | – |
